Our source for the IC50 and Ki values is article PMC6422423, “Constitutively active BRS3 is a genuinely orphan GPCR in placental mammals” (PLoS Biology, 2019).

Where no end group is shown, it is not given here.

The target of experiment [1] is chicken bombesin receptor subtype-3 (chicken (Gallus gallus)). The experiment is described as follows: radioligand binding; displacement of 50 pM [125I]-Tyr-NMB by unlabeled peptide on disaggregated transfected HEK293 cells; 1 h at 21°C; 24.5 mM HEPES pH 7.4, 98 mM NaCl; bound tracer separated by centrifugation.
In experiment [2] the target is spotted gar bombesin receptor subtype-3 (spotted gar (Lepisosteus oculatus)). Described as above.
Sequence of spotted gar bombesin receptor subtype-3 (spotted gar (Lepisosteus oculatus)) (main, as listed by the source): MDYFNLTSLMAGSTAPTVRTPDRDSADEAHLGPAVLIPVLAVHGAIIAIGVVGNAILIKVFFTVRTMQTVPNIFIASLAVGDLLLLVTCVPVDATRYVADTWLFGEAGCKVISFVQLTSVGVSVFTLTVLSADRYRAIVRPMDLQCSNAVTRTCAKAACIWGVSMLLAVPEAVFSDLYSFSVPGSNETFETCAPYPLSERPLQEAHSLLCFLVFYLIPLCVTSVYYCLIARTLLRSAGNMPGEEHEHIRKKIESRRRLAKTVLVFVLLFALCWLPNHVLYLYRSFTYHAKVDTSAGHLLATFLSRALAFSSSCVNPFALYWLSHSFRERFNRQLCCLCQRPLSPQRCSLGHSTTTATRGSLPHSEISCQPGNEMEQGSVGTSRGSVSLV
Experiment [3] deals with turtle bombesin receptor subtype-3 (turtle (Chrysemys picta)). The experiment is described as above.
Sequence of turtle bombesin receptor subtype-3 (turtle (Chrysemys picta)) (main, as listed by the source): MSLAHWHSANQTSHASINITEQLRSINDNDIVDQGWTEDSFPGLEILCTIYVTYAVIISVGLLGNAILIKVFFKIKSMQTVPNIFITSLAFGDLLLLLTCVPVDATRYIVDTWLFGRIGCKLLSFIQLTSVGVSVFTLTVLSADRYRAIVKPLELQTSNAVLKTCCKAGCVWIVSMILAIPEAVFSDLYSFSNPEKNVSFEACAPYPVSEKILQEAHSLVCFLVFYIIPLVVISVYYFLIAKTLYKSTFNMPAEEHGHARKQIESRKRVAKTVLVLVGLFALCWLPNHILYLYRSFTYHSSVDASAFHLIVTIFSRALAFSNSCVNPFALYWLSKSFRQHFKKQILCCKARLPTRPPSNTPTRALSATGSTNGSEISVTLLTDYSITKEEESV
Experiment [4] concerns the target aardvark bombesin receptor subtype-3 (aardvark (Orycteropus afer)). The experiment is described as follows: radioligand binding; displacement of 50 pM [125I]-Tyr42-GRP by unlabeled peptide on disaggregated transfected HEK293 cells; 1 h at 21°C; 24.5 mM HEPES pH 7.4, 98 mM NaCl; bound tracer separated by centrifugation.
Experiment [5] deals with chicken bombesin receptor subtype-3 (chicken (Gallus gallus)). The description is as above.
In experiment [6] the target is spotted gar bombesin receptor subtype-3 (spotted gar (Lepisosteus oculatus)). Described as above.
The target in experiment [7] is turtle bombesin receptor subtype-3 (turtle (Chrysemys picta)). The description is as above.

Sequence of aardvark bombesin receptor subtype-3 (aardvark (Orycteropus afer)) (P32247 other isoform, or with tags, fused parts or gaps): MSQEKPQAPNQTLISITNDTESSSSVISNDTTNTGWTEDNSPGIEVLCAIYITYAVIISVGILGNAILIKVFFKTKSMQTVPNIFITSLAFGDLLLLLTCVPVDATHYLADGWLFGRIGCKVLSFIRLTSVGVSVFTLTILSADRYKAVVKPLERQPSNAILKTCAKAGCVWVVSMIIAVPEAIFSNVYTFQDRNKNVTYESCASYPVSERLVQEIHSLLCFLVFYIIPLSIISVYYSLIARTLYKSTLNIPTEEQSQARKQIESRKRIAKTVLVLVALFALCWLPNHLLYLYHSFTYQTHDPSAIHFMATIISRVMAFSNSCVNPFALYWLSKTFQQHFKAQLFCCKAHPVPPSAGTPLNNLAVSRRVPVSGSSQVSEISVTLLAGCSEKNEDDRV

For APLQPGGSPALTKIYPRGSHWAVGHLM (ends and bridges not checked) [gastrin-releasing peptide, unlabeled ligand peptide of the radioligand binding assays], the IC50 in experiment [1] turned out to be 0.18 nM; in experiment [2] it was 0.54 nM; in experiment [3], 0.28 nM; in experiment [5], 0.15 nM; in experiment [6] it was 0.17 nM; in experiment [7], 0.14 nM. Also, in experiment [4], the Ki was above 1000 nM.

As a reminder, the IC50 is the concentration at which inhibition is half-maximal. Low values mean higher potency, high ones lower potency. As a reminder, the Ki is the equilibrium dissociation constant of an inhibitor or competing ligand from its target. A lower Ki goes with a stronger hold on the target.
